Test results from patent CN116284427A (SUNSHINE GUOJIAN PHARMACEUTICAL SHANGHAI CO LTD, dated 2023).
Values joined by “and” are separate entries in the source; they are usually repeats but may differ in a detail not shown here. Equal values may be shown once. Each block holds one binder with its values, some of them ahead of it.

Tests used:
[1] = molecular target: CD3 (CD3-TCR complex) on Promega PD1 effector cells (Jurkat T cells) (human); assay: cell-based or functional assay
MUC17 on LS174T cells [2] = molecular target: T1, MUC17 on LS174T cells (human, UniProt Q685J3 26-4493); assay: flow cytometry on LS174T cells, PE goat anti-human Fc
[3] = molecular target: T2, Human CD3 epsilon&CD3 delta Heterodimer Protein (human, UniProt P07766 23-126; P04234 22-105); assay: ELISA, CD3 epsilon/delta heterodimer coated at 50 ng/mL, HRP goat anti-human Fc
T2 construct: Bought heterodimer; also called Human CD3 epsilon&CD3 delta Heterodimer蛋白; CD3抗原
T2 sequence (P07766 23-126, stated change not applied, chain 1 of 2): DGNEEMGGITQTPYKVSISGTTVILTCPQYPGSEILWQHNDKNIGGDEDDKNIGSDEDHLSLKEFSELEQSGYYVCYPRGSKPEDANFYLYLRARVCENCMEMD
T2 sequence (P04234 22-105, stated change not applied, chain 2 of 2): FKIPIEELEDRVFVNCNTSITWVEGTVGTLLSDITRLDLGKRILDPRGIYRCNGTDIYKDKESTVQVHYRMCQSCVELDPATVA

MUC17 on LS174T cells [4] = molecular target: T1, MUC17 on LS174T cells; assay: cell-based or functional assay
MUC17-ECD-His蛋白 = molecular target: T3, MUC17-ECD-His蛋白 (human, UniProt Q685J3 26-4393); assay: ELISA, MUC17-ECD-His coated at 500 ng/mL, HRP goat anti-human Fc
T3 construct: extracellular domain; Made in HEK-293E; the signal peptide added at the N-terminus is not part of the purified protein; also called MUC17抗原

B2: anti-MUC17×CD3 BsAb CM8 (bispecific antibody, human IgG1, kappa)
heavy: not shown
light: QAVVTQEPSLTVSPGGTVTLTCRSSTGAVTTSNYANWVQQKPGQAPRGLIGGTNKRAPGVPARFSGSLLGGKAALTLSGAQPEDEAEYYCALWYSNLWVFGQGTKVEIKRTVAAPSVFIFPPSDEQLKSGTASVVCLLNNFYPREAKVQWKVDNALQSGNSQESVTEQDSKDSTYSLSSTLTLSKADYEKHKVYACEVTHQGLSSPVTKSFNRGEC
EC 50 [1]: 1.17 nM
Top [1]: 76700
binding result (MUC17 on LS174T cells [2]): binds
binding result [3]: binds

B5: 人源化抗CD3抗体huSP34 (antibody, human IgG1, kappa, V domains shown)
VH: EVQLVESGGGLVQPGGSLRLSCAASGFTFNTYAMNWVRQAPGKGLEWVARIRSKYNNYATYYADSVKDRFTISRDDSKNTLYLQMNSLRAEDTAVYYCVRHGNFGNSYVSWFAYWGQGTLVTVSS
VL: QAVVTQEPSLTVSPGGTVTLTCRSSTGAVTTSNYANWVQQKPGQAPRGLIGGTNKRAPGVPARFSGSLLGGKAALTLSGAQPEDEAEYYCALWYSNLWVFGQGTKVEIKR
notes: Humanized SP34, IgG1/kappa; positive control for the CD3 arm
EC 50 [1]: 0.73 nM and 0.624 nM
binding result [3]: binds

B6: 27A3人源化抗体(hu-27A3) (antibody, human IgG1, kappa, V domains shown)
VH: QVQLVQSGAEVKKPGASVKVSCKASGYSFTIYWMHWVRQAPGQGLEWIGMSHPSDSESRLNQKFKDRATLTVDKSTSTAYMELSSLRSEDTAVYYCSRPYYGSSAWFADWGQGTLVTVSA
VL: DIVMTQSPDSLAVSLGERATINCKSSQSLLNSSNQKNYLAWYQQKPGQSPKLLIYFASTRESGVPDRFSGSGSGTDFTLTISSLQAEDVAVYYCQQHYSFPLTFGAGTKLELRR
notes: Humanized anti-MUC17 IgG1/kappa, made in HEK-293E; also called 抗MUC17的人源化单克隆抗体
EC 50 (MUC17-ECD-His蛋白): 0.0893 nM

Further lines, results first:

EC 50 [1]: 0.646 nM
Top [1]: 42300
binding result (MUC17 on LS174T cells [2]): binds
binding result [3]: binds
B1: anti-MUC17×CD3 BsAb CM5 (bispecific antibody, human IgG1, kappa)
heavy: not shown
light: B2 light

EC 50 [1]: 1.11 nM
Top [1]: 45800
binding result (MUC17 on LS174T cells [2]): binds
binding result [3]: binds
B3: anti-MUC17×CD3 BsAb CM6 (bispecific antibody, human IgG1, kappa)
heavy: not shown
light: B2 light

EC 50 [1]: 1.41 nM
Top [1]: 80500
binding result [3]: binds
IC 50 (CD3+T细胞杀伤LS174T细胞, CellTiter-Glo) (MUC17 on LS174T cells [4]): 0.28 nM
B4: anti-MUC17×CD3 BsAb CM7 (bispecific antibody, human IgG1, kappa)
heavy: not shown
light: B2 light
